Laboratory results: patent US20040229366A1 (University of California, published 2004)

What was measured:
[1] = target: T1, bait vector (empty pBI-880, GAL4 (1-147) alone) (UniProt P04386 1-147); assay: yeast two-hybrid retest, B-Gal and HIS prototrophy
T1 construct: range 1-147; Negative control: bait vector without insert; also called empty bait
From the text: To confirm the specificity of the observed interactions, the longest and shortest clone of each class was transformed back into a yeast strain that contained either the CAL bait, the bait vector, or an inert control bait, cruciferin. The strains containing the CAL bait tested positive for both B-Gal activity and HIS prototrophy. The strains containing the bait vector or the cruciferin bait were negative in both assays, as they were not able to grow on plates lacking histidine and the yeast colonies were completely white in the B-Gal assay.

[2] = target: T1, bait vector (empty pBI-880, GAL4 …); assay: yeast two-hybrid, K-box prey with empty bait
From the text: Previous studies have shown that the MADS-domain and I regions may be important for homodimer formation by AG and by AP1 (Krizek and Meyerowitz, 1996; Mizukami et al., 1996; Riechmann et al., 1996) and that the I region and K-domain are needed for the formation of AP3/PI heterodimers (Krizek and Meyerowitz, Proc. Natl. Acad. Sci. USA 93, 4063-4070 (1996); Riechmann et al., Proc. Natl. Acad. Sci. USA 93, 4793-4798 (1996)). In addition, the K-domain of AG is sufficient to promote interactions with SEP1, SEP2, SEP3 and AGL6 in yeast (Fan et al., Plant J. 11, 999-1010 (1997)). Since many of the CAL- and AP1-interacting clones isolated as part of our study lacked the MADS-domain and I regions, we tested if the K-domain itself was sufficient to promote the observed interactions. First, we subcloned the K-box regions of SEP3, SOC1, SVP and AGL24 into the prey vector, and tested their ability to activate the reporter using either the empty bait or the cruciferin gene cloned into the bait plasmid. […] However, other protein domains appear to enhance these interactions since the level of reporter gene activation is higher when larger constructs are used.

[3] = target: T2, CAL bait (GAL4 (1-147) fused to the intact CAL coding region in pBI-880) (Arabidopsis thaliana); assay: yeast two-hybrid with CAL bait
T2 construct: range 1-147; also called CAULIFLOWER; full-length CAL cDNA as bait
From the text: To confirm the specificity of these interactions, the longest clone of each class was transformed back into yeast with the AP1 bait, the bait vector, and an inert control bait, cruciferin. The strains containing the AP1 bait tested positive for both β-Gal activity and HIS prototrophy. The strains containing the bait vector or the cruciferin bait were negative in both assays. We then tested if the three new AP1-interacting clones could also interact with CAL, since they had not been isolated in the CAL library screen. However, AGL27, the RNA binding protein, and the novel protein were unable to interact with CAL in yeast.

B1: shortest AGL24 clone from the CAL two-hybrid screen (other)
chain: EVEDKTKQLRKLRGEDLDGLNLEELQRLEKLLESGLSRVSEKKGECVMSQIFSLEKRGSELVDENKRLRDKLETLERAKLTTLKEALETESVTTNVSSYDSGTPLEDDSDTSLKLGLPSWE
notes: Lacks the MADS domain and I region; also called shortest clone of each class; shortest clones isolated in the screen; not shown: fusion partner encoded by prey vector pBI771
B1: no binding [1].

B2: SEP3K (K-box region of SEP3 in prey vector pBI771) (other)
chain: SQQEYLKLKERYDALQRTQRNLLGEDLGPLSTKELESLERQLDSSLKQIRALRTQFMLDQLNDLQSK
notes: also called SEP3 K-box; K-box prey construct; not shown: fusion partner encoded by prey vector pBI771
B2: no binding [2].

B3: SOC1K (K-box region of SOC1 in prey vector pBI771) (other, not shown: small tags and cut ends)
chain: MKYEAANMMKKIEQLEASKRKLLGEGIGTCSIEELQQIEQQLEKSVKCIRARKTQVFKEQIEQLKQKE
notes: also called SOC1 K-box; K-box prey construct
B3: no binding [2].

B4: SVPK (K-box region of SVP in prey vector pBI771) (other, not shown: small tags and cut ends)
chain: MSDHARMSKEIADKSHRLRQMRGEELQGLDIEELQQLEKALETGLTRVIETKSDKIMSEISELQKKG
notes: also called SVP K-box; K-box prey construct
B4: no binding [2].

B5: AGL24K (K-box region of AGL24 in prey vector pBI771) (other, not shown: small tags and cut ends)
chain: MLENCNLSRLSKEVEDKTKQLRKLRGEDLDGLNLEELQRLEKLLESGLSRVSEKKGECVMSQIFSLE
notes: also called AGL24 K-box; K-box prey construct
B5: no binding [2].

B6: AGL27 clone isolated in the AP1 two-hybrid screen (one clone) (other)
chain: MGRRKIEIKRIENKSSRQVTFSKRRNGLIDKARQLSILCESSVAVVVVSASGKLYDSSSGDDISKIIDRYEIQHADELRALDLEEKIQNYLPHKELLETVQSKLEEPNVDNVSVDSLISLEEQLETALSVSRARKAELMMEYIESLKEKEKLLREENQVLASQLSEKKGMSHR
notes: also called new MADS box gene designated AGL27; not shown: fusion partner encoded by prey vector pBI771
B6: no binding [3].
